Test results: the Human Domainome abundance scans (Beltran et al. 2025)
± gives the uncertainty stated by the source.

B1: Serine/threonine-protein kinase A-Raf, residues 21 to 89; numbered along this chain, P10398 (parent)
chain: VKVYLPNKQRTVVTVRDGMSVYDSLDKALKVRGLNQDCCVVYRLIKGRKTVTAWDTAIAPLDGEELIVE

Variants of: B1
Test: abundance fitness (aPCA) (normalised: wild type 0, dead -1); higher = more abundant; growth selection in yeast, the domain comes from the species named
Conditions: Homo sapiens

Row | Variant | abundance fitness
1 | VKVYLPNKQRTVVTVRDGMSVYDSLDKAWKVRGLNQDCCVVYRLIKGRKTVTAWDTAIAPLDGEELIVE [L29W] | -0.601 ± 0.07
2 | VKVYLPNKQRTVVTVRDGMSVYDSLDKALKVRGLNQDCCVVYRLRKGRKTVTAWDTAIAPLDGEELIVE [I45R] | -0.098 ± 0.053
3 | VKVYLPNKQRTVVTVRDGMSVYDSLDKALKVRGLNQDCCVVYRLIKGRKTVTPWDTAIAPLDGEELIVE [A53P] | 0.032 ± 0.075
4 | VKVYLPNKQRTVVTVRDGMSVYDSLDKALKVRGLNQDCCVVYRLIKGRKTVTAWDTAIFPLDGEELIVE [A59F] | -0.015 ± 0.12
5 | FKVYLPNKQRTVVTVRDGMSVYDSLDKALKVRGLNQDCCVVYRLIKGRKTVTAWDTAIAPLDGEELIVE [V1F] | -0.358 ± 0.21
6 | VKVYLPNKQRTVVTVRDGMSVYDSLDKALKVRGLNQDCIVVYRLIKGRKTVTAWDTAIAPLDGEELIVE [C39I] | -0.766 ± 0.27
7 | VKVYLPNKQRTVVTVRDGMSVYDSLDKALKVGGLNQDCCVVYRLIKGRKTVTAWDTAIAPLDGEELIVE [R32G] | -0.298 ± 0.053
8 | VKVYLPNKQRTVVTVRDGMSVYDSLDKALKVRGLNQDCCVVYRLIKGTKTVTAWDTAIAPLDGEELIVE [R48T] | -0.072 ± 0.1
9 | VKVYLPNKQRTVVTVRDGMSVYDSLDKALKVRGLNQDCVVVYRLIKGRKTVTAWDTAIAPLDGEELIVE [C39V] | -0.161 ± 0.066
10 | VKVYLPNKQRTVVTVRDGMSVYDSLVKALKVRGLNQDCCVVYRLIKGRKTVTAWDTAIAPLDGEELIVE [D26V] | -0.065 ± 0.051
11 | VKVYLPNKQRTVVTVRDGMSVYDSLDKALKVRGLNQDCCVVYRLIKGRKTPTAWDTAIAPLDGEELIVE [V51P] | 0.031 ± 0.077
12 | VKVYLPNKQRTVVTVRDGMSVYDSLDKFLKVRGLNQDCCVVYRLIKGRKTVTAWDTAIAPLDGEELIVE [A28F] | -0.122 ± 0.27
13 | VKVYLPNKQRTVVTVRDGMSVYDSLDKALKVRGLNQDCCVVYRLIKGRKTVTAWDTAIAPLDAEELIVE [G63A] | -0.142 ± 0.086
14 | VKVYLPNKQRTVVTVRDGMSVYDSLDKALKVRGLNQDCCAVYRLIKGRKTVTAWDTAIAPLDGEELIVE [V40A] | -0.021 ± 0.055
15 | VKVYLPNKQRTVVNVRDGMSVYDSLDKALKVRGLNQDCCVVYRLIKGRKTVTAWDTAIAPLDGEELIVE [T14N] | -0.097 ± 0.12
16 | VKVYLPNKQRTVVTVRDGMSVYDSLDKALKVRGLLQDCCVVYRLIKGRKTVTAWDTAIAPLDGEELIVE [N35L] | -0.32 ± 0.044
17 | VKVYLPNKQRTVVTVRDGMSVYDSLDKALKVRGLNQDCCVVYRLIKGRKTVTAWDTAIASLDGEELIVE [P60S] | 0.098 ± 0.08
18 | VKVYLPNKQRTVVTVRDGMSVYDSLDKALKVRGLNQDCSVVYRLIKGRKTVTAWDTAIAPLDGEELIVE [C39S] | -0.585 ± 0.11
19 | VKVYLPNRQRTVVTVRDGMSVYDSLDKALKVRGLNQDCCVVYRLIKGRKTVTAWDTAIAPLDGEELIVE [K8R] | -0.005 ± 0.04
20 | VKVYLPNKQRTVVTVRDGMSVYDSLDKALKVRGLNQDCCVVYRLILGRKTVTAWDTAIAPLDGEELIVE [K46L] | -0.437 ± 0.063

Row | Variant | abundance fitness
21 | VKVYLPNKQRTVVTVRDGMSVYDSLDKALKVRGLNQDCCVVYRLISGRKTVTAWDTAIAPLDGEELIVE [K46S] | -0.08 ± 0.058
22 | VKVYLPNKQRTVVTVRDGMSVYDSLDKALKVRGANQDCCVVYRLIKGRKTVTAWDTAIAPLDGEELIVE [L34A] | -1.02 ± 0.17
23 | VKVYLPNKQRTVVTVFDGMSVYDSLDKALKVRGLNQDCCVVYRLIKGRKTVTAWDTAIAPLDGEELIVE [R16F] | -0.169 ± 0.079
24 | VKVYLPNKQRTVVTVRDGMSVYDSLDKALKVRGLNQDCCVVYRLIKGRKTVTAWDTAIAPLDGEELIVK [E69K] | -0.6 ± 0.4
25 | VKVYLPNKQRTVVTTRDGMSVYDSLDKALKVRGLNQDCCVVYRLIKGRKTVTAWDTAIAPLDGEELIVE [V15T] | -0.147 ± 0.067
26 | VKVYLPNKQRTVVTVRDGMSVYDSLDKALKVRGLNQDCCVCYRLIKGRKTVTAWDTAIAPLDGEELIVE [V41C] | -0.15 ± 0.072
27 | VKVYLPNKQPTVVTVRDGMSVYDSLDKALKVRGLNQDCCVVYRLIKGRKTVTAWDTAIAPLDGEELIVE [R10P] | -0.318 ± 0.075
28 | VKVYLPNKQVTVVTVRDGMSVYDSLDKALKVRGLNQDCCVVYRLIKGRKTVTAWDTAIAPLDGEELIVE [R10V] | 0.187 ± 0.057
29 | VKVYLPNKQRTVVTVRDGMSVYDSLDKALKVRGLNQDCCVVYRLIKGRKVVTAWDTAIAPLDGEELIVE [T50V] | 0.362 ± 0.18
30 | VKVYLPNKQRTVVTVRDGMSVYDSLDKALKVRGLNQDCCVVYRLIKGHKTVTAWDTAIAPLDGEELIVE [R48H] | -0.025 ± 0.38
31 | VKVYLPNKQRTVVTVRDGMSVYDSLDKALKVRGLNQDCCVVYRLIKGRKTRTAWDTAIAPLDGEELIVE [V51R] | -0.002 ± 0.042
32 | VKVYLPNKQRTVVTVRDGMSVYDSLDKALKVRGLNQDCCVVYRLIKGRKTVTAWDTAIARLDGEELIVE [P60R] | -0.067 ± 0.048
33 | VKVYLPNKQRTVVMVRDGMSVYDSLDKALKVRGLNQDCCVVYRLIKGRKTVTAWDTAIAPLDGEELIVE [T14M] | -0.113 ± 0.083
34 | VKVYLPNKQRTVVTVRDGMSVYDSLDKALKVRGLNQDCCVVYRLIKGRKTVTAFDTAIAPLDGEELIVE [W54F] | -0.89 ± 0.29
35 | VKVYLPNKQRTVVTVRDGMSVYQSLDKALKVRGLNQDCCVVYRLIKGRKTVTAWDTAIAPLDGEELIVE [D23Q] | 0.118 ± 0.067
36 | VKVYLPNKQRTVVTVRDGMSVYDSLDKALKVRGLNQDCCVVYRLIKGRKTVTAWDTAIAPLDQEELIVE [G63Q] | -0.466 ± 0.1
37 | VKVYLPNKQRTVVHVRDGMSVYDSLDKALKVRGLNQDCCVVYRLIKGRKTVTAWDTAIAPLDGEELIVE [T14H] | -0.213 ± 0.32
38 | VKVYLPNKQRTVVTVRDGHSVYDSLDKALKVRGLNQDCCVVYRLIKGRKTVTAWDTAIAPLDGEELIVE [M19H] | -0.491 ± 0.4
39 | VKVYLPNKQRTVVTVRDGMSVYDSLDKALKVRGLNQDCCVVYRLLKGRKTVTAWDTAIAPLDGEELIVE [I45L] | -0.11 ± 0.051
